Changes are numbered by the printed parent chain.
B1: modified version of TCR 13 (codon optimized, cysteine modified) (TCR, V domains shown)
V domain 1: AQSVTQLDSHVSVSEGTPVLLRCNYSSSYSPSLFWYVQHPNKGLQLLLKYTSAATLVKGINGFEAEFKKSETSFHLTKPSAHMSDAAEYFCVVRGGKLIFGQGTELSVKP
V domain 2: GAGVSQSPRYKVAKRGQDVALRCDPISGHVSLFWYQQALGQGPEFLTYFQNEAQLDKSGLPSDRFFAERPEGSVSTLKIQRTQQEDSAVYLCASSPTGTERELFFGEGSRLTVLE
B2: modified version of TCR 14 (codon optimized, cysteine modified) (TCR)
TCR alpha: ILNVEQSPQSLHVQEGDSTNFTCSFPSSNFYALHWYRWETAKSPEALFVMTLNGDEKKKGRISATLNTKEGYSYLYIKGSQPEDSATYLCASQTGANNLFFGTGTRLTVIPYIQNPDPAVYQLRDSKSSDKSVCLFTDFDSQTNVSQSKDSDVYITDKCVLDMRSMDFKSNSAVAWSNKSDFACANAFNNSIIPEDTFFPSPESSCDVKLVEKSFETDTNLNFQNLSVIGFRILLLKVAGFNLLMTLRLWSS
TCR beta: DVKVTQSSRYLVKRTGEKVFLECVQDMDHENMFWYRQDPGLGLRLIYFSYDVKMKEKGDIPEGYSVSREKKERFSLILESASTNQTSMYLCASTFWGQRRTEAFFGQGTRLTVVEDLNKVFPPEVAVFEPSEAEISHTQKATLVCLATGFFPDHVELSWWVNGKEVHSGVCTDPQPLKEQPALNDSRYCLSSRLRVSATFWQNPRNHFRCQVQFYGLSENDEWTQDRAKPVTQIVSAEAWGRADCGFTSVSYQQGVLSATILYEILLGKATLYAVLVSALVLMAMVKRKDF
B3: TCR 22 (codon optimized, cysteine modified version) (TCR, V domains shown)
V domain 1: GQNIDQPTEMTATEGAIVQINCTYQTSGFNGLFWYQQHAGEAPTFLSYNVLDGLEEKGRFSSFLSRSKGYSYLLLKELQMKDSASYLCAVRARMDSNYQLIWGAGTKLIIKP
V domain 2: DAGVTQSPTHLIKTRGQHVTLRCSPISGHKSVSWYQQVLGQGPQFIFQYYEKEERGRGNFPDRFSARQFPNYSSELNVNALLLGDSALYLCASSRTENYGYTFGSGTRLTVVE
B4: TCR 29 (codon optimized, cysteine modified version) (TCR, V domains shown)
V domain 1: AQKITQTQPGMFVQEKEAVTLDCTYDTSDQSYGLFWYKQPSSGEMIFLIYQGSYDEQNATEGRYSLNFQKARKSANLVISASQLGDSAMYFCAMRLNTGTASKLTFGTGTRLQVTL
V domain 2: DGGITQSPKYLFRKEGQNVTLSCEQNLNHDAMYWYRQDPGQGLRLIYYSQIVNDFQKGDIAEGYSVSREKKESFPLTVTSAQKNPTAFYLCASSPWGRATNEQFFGPGTRLTVLE
B5: TCR 28 (codon optimized, cysteine modified version) (TCR, V domains shown)
V domain 1: RKEVEQDPGPFNVPEGATVAFNCTYSNSASQSFFWYRQDCRKEPKLLMSVYSSGNEDGRFTAQLNRASQYISLLIRDSKLSDSATYLCVVRGGGTSYGKLTFGQGTILTVHP
V domain 2: DVKVTQSSRYLVKRTGEKVFLECVQDMDHENMFWYRQDPGLGLRLIYFSYDVKMKEKGDIPEGYSVSREKKERFSLILESASTNQTSMYLCASSLWGRSSGNTIYFGEGSWLTVVE
B6: TCR 15 (codon optimized, cysteine modified version) (TCR, V domains shown)
V domain 1: AQKITQTQPGMFVQEKEAVTLDCTYDTSDQSYGLFWYKQPSSGEMIFLIYQGSYDEQNATEGRYSLNFQKARKSANLVISASQLGDSAMYFCAMKPGGYNKLIFGAGTRLAVHP
V domain 2: DAGVIQSPRHEVTEMGQEVTLRCKPISGHNSLFWYRQTMMRGLELLIYFNNNVPIDDSGMPEDRFSAKMPNASFSTLKIQPSEPRDSAVYFCASSLVGRSRTEQYFGPGTRLTVTE
B7: TCR 26 (codon optimized, cysteine modified version) (TCR, V domains shown)
V domain 1: B6 V domain 1 with K95R, P96D, G97A, G98R, Y99N, K101D, L102M, I103R, A111T, H113K
V domain 2: NAGVTQTPKFRVLKTGQSMTLLCAQDMNHEYMYWYRQDPGMGLRLIHYSVGEGTTAKGEVPDGYNVSRLKKQNFLLGLESAAPSQTSVYFCASSYYASGRNYEQYFGPGTRLTVTE
B8: TCR 20 (codon optimized, cysteine modified version) (TCR, V domains shown)
V domain 1: AQKVTQAQTEISVVEKEDVTLDCVYETRDTTYYLFWYKQPPSGELVFLIRRNSFDEQNEISGRYSWNFQKSTSSFNFTITASQVVDSAVYFCALWTGANNLFFGTGTRLTVIP
V domain 2: GAVVSQHPSRVICKSGTSVKIECRSLDFQATTMFWYRQFPKQSLMLMATSNEGSKATYEQGVEKDKFLINHASLTLSTLTVTSAHPEDSSFYICSASSLARRSYEQYFGPGTRLTVTE
B9: TCR 16 (codon optimized, cysteine modified version) (TCR, V domains shown)
V domain 1: KQEVTQIPAALSVPEGENLVLNCSFTDSAIYNLQWFRQDPGKGLTSLLLIQSSQREQTSGRLNASLDKSSGRSTLYIAASQPGDSATYLCAVRPANNNDMRFGAGTRLTVKP
V domain 2: DVKVTQSSRYLVKRTGEKVFLECVQDMDHENMFWYRQDPGLGLRLIYFSYDVKMKEKGDIPEGYSVSREKKERFSLILESASTNQTSMYLCASSLWGRSNQPQHFGDGTRLSILE
B10: TCR 19 (codon optimized, cysteine modified version) (TCR, V domains shown)
V domain 1: B4 V domain 1 with L96E
V domain 2: B9 V domain 2 with L95S, R98Q, N100T, Q101G, P102E, H104Y, D107P, S112T, I113V, L114T
B11: TCR 25 (codon optimized, cysteine modified version) (TCR, V domains shown)
V domain 1: AQKITQTQPGMFVQEKEAVTLDCTYDTSDQSYGLFWYKQPSSGEMIFLIYQGSYDEQNATEGRYSLNFQKARKSANLVISASQLGDSAMYFCAMREGSLTGGGNKLTFGTGTQLKVEL
V domain 2: B9 V domain 2 with R98Q
B12: TCR 30 (codon optimized, cysteine modified version) (TCR, V domains shown)
V domain 1: DAKTTQPPSMDCAEGRAANLPCNHSTISGNEYVYWYRQIHSQGPQYIIHGLKNNETNEMASLIITEDRKSSTLILPHATLRDTAVYYCIVRGTSVLQGNEKLTFGTGTRLTIIP
V domain 2: EPEVTQTPSHQVTQMGQEVILRCVPISNHLYFYWYRQILGQKVEFLVSFYNNEISEKSEIFDDQFSVERPDGSNFTLKIRSTKLEDSAMYFCASSRQPSSGNTIYFGEGSWLTVVE
B13: TCR 55 (codon optimized, cysteine modified version) (TCR)
TCR alpha: GEDVEQSLFLSVREGDSSVINCTYTDSSSTYLYWYKQEPGAGLQLLTYIFSNMDMKQDQRLTVLLNKKDKHLSLRIADTQTGDSAIYFCAVPSGATNKLIFGTGTLLAVQPNIQNPDPAVYQLRDSKSSDKSVCLFTDFDSQTNVSQSKDSDVYITDKCVLDMRSMDFKSNSAVAWSNKSDFACANAFNNSIIPEDTFFPSPESSCDVKLVEKSFETDTNLNFQNLSVIGFRILLLKVAGFNLLMTLRLWSS
TCR beta: EPEVTQTPSHQVTQMGQEVILRCVPISNHLYFYWYRQILGQKVEFLVSFYNNEISEKSEIFDDQFSVERPDGSNFTLKIRSTKLEDSAMYFCASTTRSSYEQYFGPGTRLTVTEDLKNVFPPEVAVFEPSEAEISHTQKATLVCLATGFYPDHVELSWWVNGKEVHSGVCTDPQPLKEQPALNDSRYCLSSRLRVSATFWQNPRNHFRCQVQFYGLSENDEWTQDRAKPVTQIVSAEAWGRADCGFTSESYQQGVLSATILYEILLGKATLYAVLVSALVLMAMVKRKDSRG
B14: TCR 53 (codon optimized, cysteine modified version) (TCR, V domains shown)
V domain 1: AQSVAQPEDQVNVAEGNPLTVKCTYSVSGNPYLFWYVQYPNRGLQFLLKYITGDNLVKGSYGFEAEFNKSQTSFHLKKPSALVSDSALYFCAVRDFGSGTYKYIFG
V domain 2: GAGVSQSPRYKVTKRGQDVALRCDPISGHVSLYWYRQALGQGPEFLTYFNYEAQQDKSGLPNDRFSAERPEGSISTLTIQRTEQRDSAMYRCASSGSGTSGYNEQFFGPGTRLTVLE
B15: TCR 51 (codon optimized, cysteine modified version) (TCR, V domains shown)
V domain 1: QKEVEQNSGPLSVPEGAIASLNCTYSDRGSQSFFWYRQYSGKSPELIMSIYSNGDKEDGRFTAQLNKASQYVSLLIRDSQPSDSATYLCAVNMRGGGSNYKLTFGKGTLLTVNP
V domain 2: EPEVTQTPSHQVTQMGQEVILRCVPISNHLYFYWYRQILGQKVEFLVSFYNNEISEKSEIFDDQFSVERPDGSNFTLKIRSTKLEDSAMYFCAIASRVSYEQYFGPGTRLTVTE

These binders were tested against T1, HLA-A2/E6 (29-38) tetramer (human; HPV 16) (assay: tetramer flow cytometry; transfected Jurkat-derived cells, CD8+ population).
T1 construct: also called E6(29-38) peptide-MHC tetramer; E6(29-38)-loaded tetramer
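Throughout, for % cells in E7 tet+/CD8+ quadrant: cells transiently transfected with TCR plasmids, stained 48 h later with HLA-A*02:01 peptide-MHC tetramer plus anti-CD8 antibody, read by flow cytometry to assess CD8-independent tetramer binding.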
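Throughout, for % cells in E7 tet+/CD8- quadrant: cells transiently transfected with TCR plasmids, stained 48 h later with HLA-A*02:01 peptide-MHC tetramer plus anti-CD8 antibody, read by flow cytometry to assess CD8-independent tetramer binding.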
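Throughout, for % cells in E7 tet-/CD8+ quadrant: cells transiently transfected with TCR plasmids, stained 48 h later with HLA-A*02:01 peptide-MHC tetramer plus anti-CD8 antibody, read by flow cytometry to assess CD8-independent tetramer binding.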
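Throughout, for % cells in E7 tet-/CD8- quadrant: cells transiently transfected with TCR plasmids, stained 48 h later with HLA-A*02:01 peptide-MHC tetramer plus anti-CD8 antibody, read by flow cytometry to assess CD8-independent tetramer binding.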
Description: (§1) For transfection, the CD4+ and CD4+/CD8+ cell mixtures were transiently transfected with TCR-encoding plasmids and 48 hours after transfection, cells were assessed by flow cytometry for (1) binding of the target peptide in the context of an MHC molecule (HLA:A02:01) by staining with an E6(29-38) peptide- or an E7(11-19) peptide-MHC tetramer reagent, and/or (2) CD8+ independent binding of the target by co-staining the tetramer-labeled cells with an anti-CD8 antibody.

Row | Binder | % cells in E6 tet+/CD8+ quadrant [%] | % cells in E6 tet+/CD8- quadrant [%] | % cells in E6 tet-/CD8+ quadrant [%] | % cells in E6 tet-/CD8- quadrant [%]
1 | B1 | 38.6 | 0.064 | 59.5 | 1.82
2 | B2 | 38.4 | 0.04 | 59.7 | 1.8
3 | B3 | 51.2 | 0.14 | 47.3 | 1.38

These binders were tested against T1, HLA-A2/E6 (29-38) tetramer (assay: tetramer flow cytometry; transfected 1:1 CD4+ and CD4+/CD8+ Jurkat-derived cells;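 note: cell mixtures transiently transfected with TCR-encoding plasmids, analysed by flow cytometry 48 h later after HLA-A*02:01 E6 tetramer staining combined with anti-CD8 antibody co-staining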).
Description: as §1

Row | Binder | % cells in E6 tet+/CD8+ quadrant [%] | % cells in E6 tet+/CD8- quadrant [%] | % cells in E6 tet-/CD8+ quadrant [%] | % cells in E6 tet-/CD8- quadrant [%]
4 | B4 | 35.6 | 44.5 | 2 | 17.9
5 | B5 | 13.1 | 0.15 | 31.4 | 55.4
6 | B6 | 21.4 | 40.2 | 13.6 | 24.8
7 | B7 | 42.3 | 47.4 | 1.58 | 8.73
8 | B8 | 38.2 | 34.1 | 5.17 | 22.6
9 | B9 | 35.6 | 28.2 | 9.51 | 26.7
10 | B10 | 35.5 | 20.8 | 7.71 | 36
11 | B11 | 34 | 14.7 | 10.2 | 41.1
12 | B12 | 31 | 0.74 | 13.9 | 54.3

What follows are binders tested against T2, HLA-A2/E7 (11-19) tetramer (human; HPV 16) in the same assay as above.
T2 construct: also called E7(11-19) peptide-MHC tetramer; E7 (11-19)-loaded tetramer
Description: as §1

Row | Binder | % cells in E7 tet+/CD8+ quadrant [%] | % cells in E7 tet+/CD8- quadrant [%] | % cells in E7 tet-/CD8+ quadrant [%] | % cells in E7 tet-/CD8- quadrant [%]
13 | B13 | 1.45 | 0.28 | 50.4 | 47.9
14 | B14 | 3.35 | 0.43 | 28.7 | 67.5
15 | B15 | 5.7 | 2.06 | 27.5 | 64.7

Reference: US20190225692A1 (JUNO THERAPEUTICS, published 2019)
